# Experimental data reported in publication PMC7518877, “The prefusion structure of herpes simplex virus glycoprotein B” (Science Advances, 2020).
# B1: HSV-1 glycoprotein B H516P, full-length, membrane-anchored, on extracellular vesicles (natural protein)
# chain: not shown
# notes: glycoprotein B (gB) of herpes simplex virus 1, full length with membrane anchor and cytoplasmic domain, gene in plasmid pEP98; Trimer embedded in the vesicle membrane; prefusion (compact) conformation; also called gB H516P; H516P gB variant; source: BHK-21 cells, transiently transfected; on extracellular vesicles harvested from the supernatant by differential centrifugation
# Molecular target: the molecule itself
# Experiment: cryo-EM structure; electron cryo tomography and sub-volume averaging of gB H516P on purified extracellular vesicles; vesicles in 20 mM Hepes (pH 8), 150 mM NaCl; 46,067 sub-volumes, C3 symmetrised; ectodomain 9.0 Å; domains of the postfusion crystal structure fitted as rigid bodies and by MD-based flexible fitting
protein,measurement,value
B1,stoichiometry N,3
